Measured values taken from the supplement of paper PMC6755084.

B1: F1*; the commonest letter at each place (parent)
chain: GAGACCGCAACTGAAAAGTTGTTATCACTTGTCGTAAGACACTTTGGATGGGTTGAAGTTCTGCACGTAGAAGCAAAAGGC

Variants of: B1
Assay: fraction ligated after 30 min (ligated reads / total reads); higher = more ligase activity
Details: with F1*sub RNA substrate (template-directed ligation), 42 °C
Summary of the method: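 Ribozyme variants were transcribed with T7 from PCR-amplified oligo-pool templates and gel-purified. Ligated and unligated bands, separated on gel, were reverse transcribed with barcoded primers and sequenced on a MiSeq, with core bases filtered at quality ≥20. Fraction ligated per variant was computed as ligated reads divided by total reads.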

Compared with GAGACCGCAACTGAAAAGTTGTTATCACTTGTCGTAAGACACTCTAGATGGGTTGAAGTTCTGCACGTAGAAGCAAAAGGC [T44C G46A], GAGACCGCAACTGAAAAGTTGTTATCACTTGTCGTAAGACACTGTGGATGGGTTGAAGTTCTGCACGTAGAAGCAAAAGGC [T44G] is higher in fraction ligated: 0.778 for the first, 0.844 for the second.

Going from GAGACCGCAACTGAAAAGTTGTTATCACTTGTCGTAAGACACTCTGGATGGGTTGAAGTTCTGCACGTAGAAGCAAAAGGC [T44C] to GAGACCGCAACTGAAAAGTTGTTATCACTTGTCGTAAGACACTGTGGACGGGTTGAAGTTCTGCACGTAGAAGCAAAAGGC [T44G T49C], the fraction ligated falls from 0.837 to 0.183.

Going from GAGACCGCAACTGAAAAGTTGTTATCACTTGTCGTAAGACACTGTGGAGGGGTTGAAGTTCTGCACGTAGAAGCAAAAGGC [T44G T49G] to GAGACCGCAACTGAAAAGTTGTTATCACTTGTCGTAAGACACTGTGGAAGGGTTGAAGTTCTGCACGTAGAAGCAAAAGGC [T44G T49A], the fraction ligated falls from 0.714 to 0.584.

Compared with GAGACCGCAACTGAAAAGTTGTTATCACTTGTCGTAAGACACTGGGGATGGGTTGAAGTTCTGCACGTAGAAGCAAAAGGC [T44G T45G], GAGACCGCAACTGAAAAGTTGTTATCACTTGTCGTAAGACACTGCGGATGGGTTGAAGTTCTGCACGTAGAAGCAAAAGGC [T44G T45C] is higher in fraction ligated: 0.35 for the first, 0.797 for the second.

First: GAGACCGCAACTGAAAAGTTGTTATCACTTGTCGTAAGACACTGAGGATGGGTTGAAGTTCTGCACGTAGAAGCAAAAGGC [T44G T45A]
Second: GAGACCGCAACTGAAAAGTTGTTATCACTTGTCGTAAGACACTGTGGCTGGGTTGAAGTTCTGCACGTAGAAGCAAAAGGC [T44G A48C]
The fraction ligated of the first is higher: 0.769 for the first, 0.757 for the second.

First: GAGACCGCAACTGAAAAGTTGTTATCACTTGTCGTAAGACACTGTGGGTGGGTTGAAGTTCTGCACGTAGAAGCAAAAGGC [T44G A48G]
Second: GAGACCGCAACTGAAAAGTTGTTATCACTTGTCGTAAGACACTGTGGTTGGGTTGAAGTTCTGCACGTAGAAGCAAAAGGC [T44G A48T]
The fraction ligated of the first is higher: 0.787 for the first, 0.782 for the second.

Compared with GAGACCGCAACTGAAAAGTTGTTATCACTTGTCGTAAGACACTCTGTATGGGTTGAAGTTCTGCACGTAGAAGCAAAAGGC [T44C G47T], GAGACCGCAACTGAAAAGTTGTTATCACTTGTCGTAAGACACTCTGAATGGGTTGAAGTTCTGCACGTAGAAGCAAAAGGC [T44C G47A] is higher in fraction ligated: 0.152 for the first, 0.772 for the second.

First: GAGACCGCAACTGAAAAGTTGTTATCACTTGTCGTAAGACACTCTGCATGGGTTGAAGTTCTGCACGTAGAAGCAAAAGGC [T44C G47C]
Second: GAGACCGCAACTGAAAAGTTGTTATCACTTGTCGTAAGACACTCTGGTTGGGTTGAAGTTCTGCACGTAGAAGCAAAAGGC [T44C A48T]
The fraction ligated of the first is lower: 0.0629 for the first, 0.781 for the second.

Compared with GAGACCGCAACTGAAAAGTTGTTATCACTTGTCGTAAGACACTCTGGCTGGGTTGAAGTTCTGCACGTAGAAGCAAAAGGC [T44C A48C], GAGACCGCAACTGAAAAGTTGTTATCACTTGTCGTAAGACACTCTGGGTGGGTTGAAGTTCTGCACGTAGAAGCAAAAGGC [T44C A48G] is higher in fraction ligated: 0.783 for the first, 0.821 for the second.

Going from GAGACCGCAACTGAAAAGTTGTTATCACTTGTCGTAAGACACTTAGGATGGGTTGAAGTTCTGCACGTAGAAGCAAAAGGC [T45A] to GAGACCGCAACTGAAAAGTTGTTATCACTTGTCGTAAGACACTCTGGAAGGGTTGAAGTTCTGCACGTAGAAGCAAAAGGC [T44C T49A], the fraction ligated falls from 0.787 to 0.737.

Going from GAGACCGCAACTGAAAAGTTGTTATCACTTGTCGTAAGACACTCTGGAGGGGTTGAAGTTCTGCACGTAGAAGCAAAAGGC [T44C T49G] to GAGACCGCAACTGAAAAGTTGTTATCACTTGTCGTAAGACACTCTGGACGGGTTGAAGTTCTGCACGTAGAAGCAAAAGGC [T44C T49C], the fraction ligated falls from 0.772 to 0.494.

First: GAGACCGCAACTGAAAAGTTGTTATCACTTGTCGTAAGACACTCTGGATGGGTTGACGTTCTGCACGTAGAAGCAAAAGGC [T44C A57C]
Second: GAGACCGCAACTGAAAAGTTGTTATCACTTGTCGTAAGACACTCTGGATGGGTTGAGGTTCTGCACGTAGAAGCAAAAGGC [T44C A57G]
The fraction ligated of the first is lower: 0.744 for the first, 0.802 for the second.

Compared with GAGACCGCAACTGAAAAGTTGTTATCACTTGTCGTAAGACACTCTGGATGGGTTGATGTTCTGCACGTAGAAGCAAAAGGC [T44C A57T], GAGACCGCAACTGAAAAGTTGTTATCACTTGTCGTAAGACACTCTGGATGGGTTGTAGTTCTGCACGTAGAAGCAAAAGGC [T44C A56T] is lower in fraction ligated: 0.806 for the first, 0.78 for the second.

Compared with GAGACCGCAACTGAAAAGTTGTTATCACTTGTCGTAAGACACTCTGGATGGGTTGGAGTTCTGCACGTAGAAGCAAAAGGC [T44C A56G], GAGACCGCAACTGAAAAGTTGTTATCACTTGTCGTAAGACACTCTGGATGGGTTGCAGTTCTGCACGTAGAAGCAAAAGGC [T44C A56C] is lower in fraction ligated: 0.793 for the first, 0.791 for the second.

Compared with GAGACCGCAACTGAAAAGTTGTTATCACTTGTCGTAAGACACTCTGGATAGGTTGAAGTTCTGCACGTAGAAGCAAAAGGC [T44C G50A], GAGACCGCAACTGAAAAGTTGTTATCACTTGTCGTAAGACACTCTGGATCGGTTGAAGTTCTGCACGTAGAAGCAAAAGGC [T44C G50C] is lower in fraction ligated: 0.406 for the first, 0.224 for the second.

First: GAGACCGCAACTGAAAAGTTGTTATCACTTGTCGTAAGACACTCTGGATTGGTTGAAGTTCTGCACGTAGAAGCAAAAGGC [T44C G50T]
Second: GAGACCGCAACTGAAAAGTTGTTATCACTTGTCGTAAGACACTGTGGATGGGTTGCAGTTCTGCACGTAGAAGCAAAAGGC [T44G A56C]
The fraction ligated of the first is lower: 0.691 for the first, 0.775 for the second.

Going from GAGACCGCAACTGAAAAGTTGTTATCACTTGTCGTAAGACACTGTGGATGGGTTGGAGTTCTGCACGTAGAAGCAAAAGGC [T44G A56G] to GAGACCGCAACTGAAAAGTTGTTATCACTTGTCGTAAGACACTGTGGATGGGTTGTAGTTCTGCACGTAGAAGCAAAAGGC [T44G A56T], the fraction ligated rises from 0.752 to 0.809.
